# Reference: patent publication US20140363428A1 (Chugai, published 2014)
# B1: F1579 (antibody)
# chain 1: QVQLQESGPGLVKPSETLSLTCAVSGHSISHDHAWSWVRQPPGEGLEWIGFISYSGITNYNPSLQGRVTISRDNSKNTLYLQMNSLRAEDTAVYYCARSLARTTAMDYWGEGTLVTVSSASTKGPSVFPLAPSSKSTSGGTAALGCLVKDYFPEPVTVSWNSGALTSGVHTFPAVLQSSGLYSLSSVVTVPSSSLGTQTYICNVNHKPSNTKVDKKVEPKSCDKTHTCPPCPAPELRGGPKVFLFPPKPKDTLYITREPEVTCVVVDVSHEDPEVKFNWYVDGVEVHNAKTKPREEQYNSTYRVVSVLTVLHQDWLNGKEYKCKVSNKALPAPIEKTISKAKGQPREPQVYTLPPSRDELTKNQVSLTCLVKGFYPSDIAVEWESNGQPENNYKTTPPVLDSDGSFFLYSKLTVDKSRWQQGNVFSCSVMHEALSYHVTRKELSLSP
# chain 2: DIQMTQSPSSLSASVGDSVTITCQASTDISSHLNWYQQKPGKAPELLIYYGSHLLSGVPSRFSGSGSGTDFTFTISSLEAEDAATYYCGQGNRLPYTFGQGTKVEIERTVAAPSVFIFPPSDEQLKSGTASVVCLLNNFYPREAKVQWKVDNALQSGNSQESVTEQDSKDSTYSLSSTLTLSKADYEKHKVYACEVTHQGLSSPVTKSFNRGEC
# B2: F1641 (antibody)
# chain 1: QVQLQESGPGLVKPSETLSLTCAVSGHSISHDHAWSWVRQPPGEGLEWIGFISYSGITNYNPSLQGRVTISRDNSKNTLYLQMNSLRAEDTAVYYCARSLARTTAMDYWGEGTLVTVSSASTKGPSVFPLAPSSKSTSGGTAALGCLVKDYFPEPVTVSWNSGALTSGVHTFPAVLQSSGLYSLSSVVTVPSSSLGTQTYICNVNHKPSNTKVDKKVEPKSCDKTHTCPPCPAPELRGGPKVFLFPPKPKDTLYITREPEVTCVVVDVSHEDPEVKFNWYVDGVEVHNAKTKPREEQYNSTYRVVSVLTVLHQDWLNGKEYKCKVSNKALPAPIEKTISKAKGQPREPQVYTLPPSRDELTKNQVSLTCLVKGFYPSDIAVEWESNGQPENNYKTTPPVLDSDGSFFLYSKLTVDKSRWQQGNVFSCSVMHEALAYHVTKKELSLSP
# chain 2: DIQMTQSPSSLSASVGDSVTITCQASTDISSHLNWYQQKPGKAPELLIYYGSHLLSGVPSRFSGSGSGTDFTFTISSLEAEDAATYYCGQGNRLPYTFGQGTKVEIERTVAAPSVFIFPPSDEQLKSGTASVVCLLNNFYPREAKVQWKVDNALQSGNSQESVTEQDSKDSTYSLSSTLTLSKADYEKHKVYACEVTHQGLSSPVTKSFNRGEC
# B3: F1642 (antibody)
# chain 1: QVQLQESGPGLVKPSETLSLTCAVSGHSISHDHAWSWVRQPPGEGLEWIGFISYSGITNYNPSLQGRVTISRDNSKNTLYLQMNSLRAEDTAVYYCARSLARTTAMDYWGEGTLVTVSSASTKGPSVFPLAPSSKSTSGGTAALGCLVKDYFPEPVTVSWNSGALTSGVHTFPAVLQSSGLYSLSSVVTVPSSSLGTQTYICNVNHKPSNTKVDKKVEPKSCDKTHTCPPCPAPELRGGPKVFLFPPKPKDTLYITREPEVTCVVVDVSHEDPEVKFNWYVDGVEVHNAKTKPREEQYNSTYRVVSVLTVLHQDWLNGKEYKCKVSNKALPAPIEKTISKAKGQPREPQVYTLPPSRDELTKNQVSLTCLVKGFYPSDIAVEWESNGQPENNYKTTPPVLDSDGSFFLYSKLTVDKSRWQQGNVFSCSVMHEALAYHVTRKDLSLSP
# chain 2: DIQMTQSPSSLSASVGDSVTITCQASTDISSHLNWYQQKPGKAPELLIYYGSHLLSGVPSRFSGSGSGTDFTFTISSLEAEDAATYYCGQGNRLPYTFGQGTKVEIERTVAAPSVFIFPPSDEQLKSGTASVVCLLNNFYPREAKVQWKVDNALQSGNSQESVTEQDSKDSTYSLSSTLTLSKADYEKHKVYACEVTHQGLSSPVTKSFNRGEC
# B4: F1643 (antibody)
# chain 1: QVQLQESGPGLVKPSETLSLTCAVSGHSISHDHAWSWVRQPPGEGLEWIGFISYSGITNYNPSLQGRVTISRDNSKNTLYLQMNSLRAEDTAVYYCARSLARTTAMDYWGEGTLVTVSSASTKGPSVFPLAPSSKSTSGGTAALGCLVKDYFPEPVTVSWNSGALTSGVHTFPAVLQSSGLYSLSSVVTVPSSSLGTQTYICNVNHKPSNTKVDKKVEPKSCDKTHTCPPCPAPELRGGPKVFLFPPKPKDTLYITREPEVTCVVVDVSHEDPEVKFNWYVDGVEVHNAKTKPREEQYNSTYRVVSVLTVLHQDWLNGKEYKCKVSNKALPAPIEKTISKAKGQPREPQVYTLPPSRDELTKNQVSLTCLVKGFYPSDIAVEWESNGQPENNYKTTPPVLDSDGSFFLYSKLTVDKSRWQQGNVFSCSVMHEALAYHVTKKDLSLSP
# chain 2: DIQMTQSPSSLSASVGDSVTITCQASTDISSHLNWYQQKPGKAPELLIYYGSHLLSGVPSRFSGSGSGTDFTFTISSLEAEDAATYYCGQGNRLPYTFGQGTKVEIERTVAAPSVFIFPPSDEQLKSGTASVVCLLNNFYPREAKVQWKVDNALQSGNSQESVTEQDSKDSTYSLSSTLTLSKADYEKHKVYACEVTHQGLSSPVTKSFNRGEC
# B5: F1644 (antibody)
# chain 1: QVQLQESGPGLVKPSETLSLTCAVSGHSISHDHAWSWVRQPPGEGLEWIGFISYSGITNYNPSLQGRVTISRDNSKNTLYLQMNSLRAEDTAVYYCARSLARTTAMDYWGEGTLVTVSSASTKGPSVFPLAPSSKSTSGGTAALGCLVKDYFPEPVTVSWNSGALTSGVHTFPAVLQSSGLYSLSSVVTVPSSSLGTQTYICNVNHKPSNTKVDKKVEPKSCDKTHTCPPCPAPELRGGPKVFLFPPKPKDTLYITREPEVTCVVVDVSHEDPEVKFNWYVDGVEVHNAKTKPREEQYNSTYRVVSVLTVLHQDWLNGKEYKCKVSNKALPAPIEKTISKAKGQPREPQVYTLPPSRDELTKNQVSLTCLVKGFYPSDIAVEWESNGQPENNYKTTPPVLDSDGSFFLYSKLTVDKSRWQQGNVFSCSVMHEALKYHVTKKELSLSP
# chain 2: DIQMTQSPSSLSASVGDSVTITCQASTDISSHLNWYQQKPGKAPELLIYYGSHLLSGVPSRFSGSGSGTDFTFTISSLEAEDAATYYCGQGNRLPYTFGQGTKVEIERTVAAPSVFIFPPSDEQLKSGTASVVCLLNNFYPREAKVQWKVDNALQSGNSQESVTEQDSKDSTYSLSSTLTLSKADYEKHKVYACEVTHQGLSSPVTKSFNRGEC
# B6: F1645 (antibody)
# chain 1: QVQLQESGPGLVKPSETLSLTCAVSGHSISHDHAWSWVRQPPGEGLEWIGFISYSGITNYNPSLQGRVTISRDNSKNTLYLQMNSLRAEDTAVYYCARSLARTTAMDYWGEGTLVTVSSASTKGPSVFPLAPSSKSTSGGTAALGCLVKDYFPEPVTVSWNSGALTSGVHTFPAVLQSSGLYSLSSVVTVPSSSLGTQTYICNVNHKPSNTKVDKKVEPKSCDKTHTCPPCPAPELRGGPKVFLFPPKPKDTLYITREPEVTCVVVDVSHEDPEVKFNWYVDGVEVHNAKTKPREEQYNSTYRVVSVLTVLHQDWLNGKEYKCKVSNKALPAPIEKTISKAKGQPREPQVYTLPPSRDELTKNQVSLTCLVKGFYPSDIAVEWESNGQPENNYKTTPPVLDSDGSFFLYSKLTVDKSRWQQGNVFSCSVMHEALKYHVTRKDLSLSP
# chain 2: DIQMTQSPSSLSASVGDSVTITCQASTDISSHLNWYQQKPGKAPELLIYYGSHLLSGVPSRFSGSGSGTDFTFTISSLEAEDAATYYCGQGNRLPYTFGQGTKVEIERTVAAPSVFIFPPSDEQLKSGTASVVCLLNNFYPREAKVQWKVDNALQSGNSQESVTEQDSKDSTYSLSSTLTLSKADYEKHKVYACEVTHQGLSSPVTKSFNRGEC
# Molecular target: T1, soluble human FcRn (human, UniProt P55899 24-297; P61769 21-119)
# T1 construct: Heterodimer of alpha chain and beta2-microglobulin; also called hFcRn
# Test: SPR (Biacore), pH 7.0
# T1 sequence (P55899 24-297 limits assumed, chain 1 of 2): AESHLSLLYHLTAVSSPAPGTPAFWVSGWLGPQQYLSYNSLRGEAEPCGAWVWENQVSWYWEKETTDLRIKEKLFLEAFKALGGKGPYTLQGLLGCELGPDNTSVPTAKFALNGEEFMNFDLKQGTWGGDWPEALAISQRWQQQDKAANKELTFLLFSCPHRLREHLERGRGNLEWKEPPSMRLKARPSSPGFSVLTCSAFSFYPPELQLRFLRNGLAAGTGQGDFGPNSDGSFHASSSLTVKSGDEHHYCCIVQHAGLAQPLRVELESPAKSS
# T1 sequence (P61769 21-119 limits assumed, chain 2 of 2): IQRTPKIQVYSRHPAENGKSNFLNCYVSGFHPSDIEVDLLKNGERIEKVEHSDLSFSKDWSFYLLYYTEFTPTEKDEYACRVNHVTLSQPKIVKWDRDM
row,Binder,Kd [µM]
1,B1,0.054
2,B2,0.041
3,B3,0.041
4,B4,0.039
5,B5,0.035
6,B6,0.036
